Results as given in patent US10975365B2, “Di-enzymatic chimeric endolysin” (Government of the United States of America, as represented …, priority 2018, dated 2021).

Key:
[1] = system: S. pneumoniae ATCC TIGR 4; assay: Bacteriolytic (turbidity reduction) assay; assay type: cell-based, Streptococcus pneumoniae; conditions: 5 μg/ml; OD from 1.0 to 0.2 within the first 2 min; overnight culture
Method: (§1) In a bacteriolytic assay, bacterial culture (stationary phase) was harvested at 5,000 for 10 min at 4° C., washed twice and resuspended in PBS buffer, pH7.4. In a 96-well titration plate, the resuspended bacterial solution was mixed 1:1 (u/u) with endolysin to a final OD600 between 0.8 to 1.0. In each run, PBS was included as a negative control. Spectrophotometric readings (OD600) were taken every 15 s over 10 min on a spectrophotometer. Vmax was calculated as the slope of the linear portion and represented the endolysins activity. All experiments were conducted in triplicate to get the standard deviation.
(§2) Bacteriolytic capacity of ClyX-1 and ClyX-1 linkers were analyzed via the turbidity reduction assay against the overnight culture of S. pneumoniae ATCC TIGR 4. Both enzymes-induced lysis of the bacterial peptidoglycan caused a decrease in OD from 1.0 to 0.2 (80%) within the first 2 min of the turbidity assay at 5 μg/ml as shown in FIG. 9a. The linkers were the only difference between these two enzymes, and the unstructured region of PlyCA GyH, PlyCA CHAP, and Cpl-1 CBD provide optimal flexibility for enzymatical activity. High lytic activity correlated with data for bacterial survival after chimera treatment. ClyX-1 sterilized cultures for 5 min, causing a decrease in TIGR 4 viability of ˜6 log, at as low as 0.5 μg/ml (FIG. 9b). […]

[2] = system: TIGR 4; assay: Bactericidal assay (log killing), 5 min; assay type: cell-based, Streptococcus pneumoniae; conditions: 0.5 μg/ml
Method: (§3) With regard to bactericidal assay, bacterial cells were diluted to 2× rich media to generate a final concentration of 5.0×10^6 CFU/ml. 100 μl of the diluted bacterial culture was added into a 96-well titration plate in triplicate and mixed with 100 μl of sterile-filtered enzymes. Plates were sealed and incubated at 37° C. for 5-60 min. After the incubation, bacterial cells were serially diluted in 10-fold increments into sterile PBS and plated on THY/TSB agar. Log killing was calculated as follows: −log[(CFU under enzyme treatment)/(CFU under PBS treatment)].
as §2, with “9b). Stability of ClyX-1 at different temperature and pH was surveyed to determine optimal conditions.” for “9b).”

[3] = system: stationary phase S. pneumoniae TIGR 4; assay: Temperature stability and pH optimum of ClyX-1 by turbidity reduction assay; assay type: cell-based, Streptococcus pneumoniae
Method: as §1
The optimal biochemical conditions for ClyX-1 against stationary phase S. pneumoniae TIGR 4 were determined using the turbidity reduction assay described above. For temperature stability, ClyX-1 was incubated at indicated temperatures (4° C., 16° C., 25° C., 37° C., 45° C., 55° C., or 65° C.)/tsb for 30 min, recovered on ice for 5 min, and subjected to the spectrophotometric analysis. For optimal pH condition, pneumococci TIGR 4 were suspended in 40 mM boric acid/phosphoric acid (BP) buffer, pH 3-10, and were challenged against ClyX-1.

[4] = system: S. pneumoniae strains; assay: Antimicrobial spectrum of ClyX-1 by turbidity reduction assay, pneumococci; assay type: cell-based, Streptococcus pneumoniae; conditions: 14 most frequent serotypes, Lyt 4.4, R36A and R6; 5 μg/ml, 10 min
Method: (§4) (b) Bactericidal effects of ClyX-1 against stationary phase S. pneumoniae R6. Different concentrations of ClyX-1 were mixed with 10^6 overnight bacterial culture for 5 min. Log killing was determined through the comparisons of PBS treatment and ClyX-1 treatment. (c)-(d) Biochemical characterization of ClyX-1. The effects of temperature stability (c) and pH (d) were evaluated. […] of ClyX-1 was assayed for lytic activity via turbidity reduction assay against stationary phase S. pneumoniae TIGR 4 cells for 10 min. Values were presented as percentage of lytic activity in a relation to activity observed for pH 7 and 37° C. (e) The host range of ClyX-1. Multiple strains of streptococci were tested for susceptibility. The bacterial cells were washed twice and resuspended in PBS to a final OD600 of 0.9-1.0. The changes of OD600 were presented after treating with […] of ClyX-1 for 10 min;
as §1, with “In each run, PBS was included as a negative control.” left out, “All experiments were conducted in triplicate to get the standard deviation.” left out

[5] = system: other streptococci; assay: Antimicrobial spectrum of ClyX-1 by turbidity reduction assay, other streptococci; assay type: cell-based; conditions: 5 μg/ml, 10 min
Method: as §4
as §1, with “In each run, PBS was included as a negative control.” left out, “All experiments were conducted in triplicate to get the standard deviation.” left out

[6] = system: S. pneumoniae D39; assay: Bactericidal assay on D39, ClyX-1 compared with Cpl-1 and PlyCA; assay type: cell-based, Streptococcus pneumoniae
Method: (§5) (a) Different concentrations of ClyX-1 and Cpl-1 were mixed with 10^6 overnight S. pneumoniae D39 culture for 5 min. The cells were then serial diluted and plated on the THY plates. Log killing was determined through the comparisons of PBS treatment and the enzymes treatment. (b) Female BALB/c mice were injected intraperitoneally with pneumococcus strain S. pneumoniae NS26 at a single dose at 2.95×10^7 colony forming units (CFU) per mouse. One hour after the infection, mice were intraperitoneally received a single dose of different treatments in different amount per mouse. The lines represent the percentage survival of mice for 10 days. The data was plotted as Kaplan-Meier survival curves and analyzed via the Log-rank (Mantel-Cox) test (*P<0.001; **P<0.0001);
as §3
Bactericidal assays were repeated using the three lysins at different concentrations (0.5 μg/ml to 50 μg/ml) on a different strain, D39 (FIG. 10a).

[7] = system: S. pneumoniae NS26; assay: Mouse systemic infection model, survival; assay type: in vivo, female BALB/c mice; conditions: 10 days
Method: as §5
With regard to in vivo mouse infection models, mouse infection experiments were carried out in an ABSL-2 lab. In the mouse systemic infection model, female BALB/c mice (6-8 weeks old) were injected intraperitoneally with S. pneumoniae NS26 at a single dose of 2.95×10^7 CFU/mouse and divided randomly into multiple groups. Bacterial burden in blood and organs in mice 1 h post-infected were confirmed by plating on THY agar as described previously. One hour post-infection, these groups intraperitoneally received a single dose of 20, 40, or 80 μg/mouse of […] (n=10); 20, 40, or 80 μg/mouse of Cpl-1 (n=10); 100 μg/mouse of penicillin G (n=10); or an equal volume of PBS buffer (n=10). The survival data for all groups were recorded for 10 days.
To validate the in vitro bactericidal activity of ClyX-1, we applied a mouse systemic infection model to test the in vivo efficacy of the enzyme. Mice were challenged to a 2-days lethal-dose of 2.95×10^7 CFU. One hour after infection, the mice were intraperitoneally injected a single dose containing different amount of either ClyX-1 or Cpl-1 ranging from 20 μg-80 μg. The antibiotics control was 100 μg/mouse of penicillin G, and the negative control was as PBS, pH7.4 buffer. The mice were then observed and recorded for the survival data. All the mice treated with PBS buffer died within the first 2 days.

[8] = system: GAS, GBS, GCS, S. uberis, S. suis and S. mutants; assay: Bactericidal activity of ClyX-4 on streptococci; assay type: cell-based; conditions: 50 μg/ml; 1 h
Method: (a) Bactericidal effects of ClyX-3 against five strains of stationary phase S. pneumoniae. 5 μg/ml of enzymes were mixed with 10^6 bacterial cultures for 5 min. Log killing was determined through the comparisons of PBS treatment and enzymes treatment. (b) Bactericidal effects of ClyX-4 against stationary phase streptococci. 50 μg/ml of enzymes were mixed with 10^6 bacterial culture for 1 h. Log killing was determined through the comparisons of PBS treatment and enzymes treatment;
as §3
With regard to applying the design rationale to add a C′ terminal EAD such that two EADs are disposed at each side of the CBD, the process was used to engineer endolysins for increased activity. […]

[9] = system: other streptococci strains; assay: MIC test on other streptococci strains; assay type: cell-based
Method: The MICs of enzymes and antibiotics were determined in a 96-well titration plate in triplicate. Briefly, the overnight pneumococcal culture was diluted with 2×THY to obtain a final concentration of 1×10^7 CFU/ml, and other bacterial species were diluted with 2-folded medium to 1×10^5 CFU/ml. 100 μl of the diluted bacterial culture was subjected into each well, mixing with the serial 2-fold diluted 100 μl of enzymes/antibiotics. PBS buffer was used as a negative control. The plates were sealed via parafilm and statically incubated at 37° C. incubator for 24 h. The MIC was defined as the lowest concentration of treatment that inhibited visible growth of the bacterium.
With regard to applying the design rationale to add a C′ terminal EAD such that two EADs are disposed at each side of the CBD, the process was used to engineer endolysins for increased activity. We created the ClyX-3, the full-length Cpl-1 with an additional C′ terminal PlyC CHAP, and ClyX-4, the full-length PlySs2 with an additional C′ terminal Cpl-1 EAD (GH25) (FIG. 4 and FIG. 6). These constructs were expressed and purified as soluble proteins.

[10] = incubated 30 min at indicated temperature before assay

Molecule | decrease in OD in turbidity assay [1] | decrease in viability [2] | optimal pH condition ([3]; BP buffer pH 3-10) | pH above which activity is lost (protein precipitation) ([3]; BP buffer pH 3-10) | pH below which activity is lost (protein precipitation) ([3]; BP buffer pH 3-10) | temperature above which the activity rapidly dropped [3, 10] | temperature below which the enzyme was stable with highest activity [3, 10] | susceptibility of all tested pneumococcal strains [4] | lysis of other streptococci [5] | fold increase in activity in vitro against S. pneumoniae compared to the parental enzyme ([6]; versus parental Cpl-1) | concentration at which the bacteria culture was sterilized ([6]; within 5 min, tested 0.5 to 50 μg/ml) | mice rescued (survival) ([7]; 20 μg single i.p. dose 1 h after infection) | mice rescued (survival) ([7]; 40 μg single i.p. dose 1 h after infection) | mice rescued (survival) ([7]; 80 μg single i.p. dose 1 h after infection) | bactericidal activity compared with PlySs2 [8] | activity by MIC compared with parental endolysin and ClyX-2 [9]
ClyX-1: chimeric endolysin, Seq. ID No. 17: Cpl-1 CBD fused between GyH and CHAP catalytic domains of PlyCA (protein, Bacteriophage, ID No. 17: Cpl-1 CBD fused between GyH and CHAP catalytic domains of PlyCA) MSKKYTQQQYEKYLAQPANNTFGLSPQQVADWFMGQAGARPVINSYGVNASNLVSTYIPKMQEYGVSYTLFLMYTVFEGGGAGNWINHYMYDTGSNGLECLEHDLQYIHGVWETYFPPALSAPECYPATEDNAGALDRFYQSLPGRTWGDVMIPSTMAGNAWVWAYNYCVNNQGAAPLVYFGNPYDSQIDSLLAMGADPFTGGSIMEEDDKPKTAGTWKQDSKGWWFRRNNGSFPYNKWEKIGGVWYYFDSKGYCLTSEWLKDNEKWYYLKDNGAMATGWVLVGSEWYYMDDSGAMVTGWVKYKNNWYYMTNERGNMVSNEFIKSGKGWYFMNTNGELADNPSFTKEPDGLITVAGSDRVAANLANAQAQVGKYIGDGQCYAWVGWWSARVCGYSISYSTGDPMLPLIGDGMNAHSIHLGWDWSIANTGIVNYPVGTVGRKEDLRVGAIWCATAFSGAPFYTGQYGHTGIIESWSDTTVTVLEQNILGSPVIRSTYDLNTFLSTLTGLITFK | 80% | ~6 log | 6.5 | above 8 | below 4 | above 45 °C | below 37 °C | susceptible | lysis of no other streptococci tested | ~100 fold | ≤ 0.5 µg/mL | 30% | 40% | 80% |  | 
ClyX-4: the full-length PlySs2 with an additional C′ terminal Cpl-1 EAD (GH25); Seq. ID No. 22 (protein, Bacteriophage, the full-length PlySs2 with an additional C′ terminal Cpl-1 EAD (GH25); ID No. 22) MTTVNEALNNVRAQVGSGVSVGNGECYALASWYERMISPDATVGLGAGVGWVSGAIGDTISAKNIGSSYNWQANGWTVSTSGPFKAGQIVTLGATPGNPYGHVVIVEAVDGDRLTILEQNYGGKRYPVRNYYSAASYRQQVVHYITPPGTVAQSAPNLAGSRSYRETGTMTVTVDALNVRRAPNTSGEIVAVYKRGESFDYDTVIIDVNGYVWVSYIGGSGKRNYVATGATKDGKRFGNAWGTFKMVKKNDLFVDVSSHNGYDITGILEQMGTTNTIIKISESTTYLNPCLSAQVEQSNPIGFYHFARFGGDVAEAEREAQFFLDNVPMQVKYLVLDYEDDPSGDAQANTNACLRFMQMIADAGYKPIYYSYKPFTHDNVDYQQILAQFPNSLWIAGYGLNDGTANFEYFPSMDGIRWWQYSSNPFDKNIVLLDDEEDDKPKTAGTWKQDSKGWWFRRNNGSFPY |  |  |  |  |  |  |  |  |  |  |  |  |  |  | more active than PlySs2 | better than parental endolysins
